Measured values: article PMC9477564 (Nature structural & molecular biology, 2021)

Biological target: the molecule itself
Assay: SEC-MALS

B1: Get3(D68N) (enzyme)
chain: not shown
  stoichiometry N: 2
